Data on six molecules can be found in publication PMC5031558, “SPATA2 Links CYLD to LUBAC, Activates CYLD, and Controls LUBAC Signaling” (Molecular Cell, 2016).

Where a chain is given by its changes, count along the chain named. Names and notes keep the numbering of the source.

T1: HOIP PUB domain (aa 1–184) (UniProt Q96EP0 1-184)
T1 construct: HOIP (RNF31), PUB domain, residues 1-184; The construct used in the pull-down, NMR and FP experiments is called only 'HOIP PUB domain'; also called HOIP PUB domain (1–184); source: E. coli, purified (as described in Elliott et al., 2014)
T1 sequence (looked up): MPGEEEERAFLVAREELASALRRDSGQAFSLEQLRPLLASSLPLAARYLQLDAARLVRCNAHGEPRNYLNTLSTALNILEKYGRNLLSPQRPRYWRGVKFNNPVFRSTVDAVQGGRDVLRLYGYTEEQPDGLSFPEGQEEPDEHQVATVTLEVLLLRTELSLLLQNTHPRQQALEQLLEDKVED

T2: HOIP PUB domain (HOIP 5–180, crystal structure) (UniProt Q96EP0 5-180)
T2 construct: 5–180 may be the modelled residues of the 1–184 construct; source: E. coli, purified (as described in Elliott et al., 2014)
T2 sequence (looked up): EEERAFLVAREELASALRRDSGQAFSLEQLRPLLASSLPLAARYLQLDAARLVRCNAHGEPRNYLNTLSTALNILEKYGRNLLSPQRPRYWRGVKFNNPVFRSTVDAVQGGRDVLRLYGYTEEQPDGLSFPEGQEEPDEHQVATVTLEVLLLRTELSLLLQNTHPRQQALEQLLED

B1: SPATA2 (aa 7–356) (domain or fragment, UniProt Q9UM82 7-356, looked up)
chain: MDTKFKDDLFRKYVQFHESKVDTTTSRQRPGSDECLRVAASTLLSLHKVDPFYRFRLIQFYEVVESSLRSLSSSSLRALHGAFSMLETVGINLFLYPWKKEFRSIKTYTGPFVYYVKSTLLEEDIRAILSCMGYTPELGTAYKLRELVETLQVKMVSFELFLAKVECEQMLEIHSQVKDKGYSELDIVSERKSSAEDVRGCSDALRRRAEGREHLTASMSRVALQKSASERAAKDYYKPRVTKPSRSVDAYDSYWESRKPPLKASLSLRKEPVATDVGDDLKDEIIRPSPSLLTMASSPHGSPDVLPPASPSNGPALLRGTYFSTQDDVDLYTDSEPRATYRRQDALRPD
notes: also called extended SPATA2 fragment; source: E. coli, purified (as described in Elliott et al., 2014)
B2: SPATA2 PIM peptide (aa 334–344) (peptide, UniProt Q9UM82 334-344, looked up)
peptide: DVDLYTDSEPR
notes: SPATA2, peptide spanning the PIM (Asp-Leu-Tyr-Thr, residues 336-339), residues 334-344; also called SPATA2 334–344
B3: CYLD B-box domain (aa 778–855) (domain or fragment, human, UniProt Q9NQC7 778-855, looked up)
chain: TDLLEDTPRQCRICGGLAMYECRECYDDPDISAGKIKQFCKTCNTQVHLHPKRLNHKYNPVSLPKDLPDWDWRHGCIP
modifications: 15N-labelled in the NMR titration
notes: CYLD, human, B-box domain, residues 778-855, 9.1 kDa as printed; Dimer by SEC-MALS (17.1 kDa); also called isolated B-box domain
B4: CYLD USP domain (aa 583–956) (domain or fragment, human, UniProt Q9NQC7 583-956, looked up)
chain: GLEIMIGKKKGIQGHYNSCYLDSTLFCLFAFSSVLDTVLLRPKEKNDVEYYSETQELLRTEIVNPLRIYGYVCATKIMKLRKILEKVEAASGFTSEEKDPEEFLNILFHHILRVEPLLKIRSAGQKVQDCYFYQIFMEKNEKVGVPTIQQLLEWSFINSNLKFAEAPSCLIIQMPRFGKDFKLFKKIFPSLELNITDLLEDTPRQCRICGGLAMYECRECYDDPDISAGKIKQFCKTCNTQVHLHPKRLNHKYNPVSLPKDLPDWDWRHGCIPCQNMELFAVLCIETSHYVAFVKYGKDDSAWLFFDSMADRDGGQNGFNIPQVTPCPEVGEYLKMSLEDLHSLDSRRIQGCARRLLCDAYMCMYQSPTMSLYK
notes: Dimer by SEC-MALS (86 kDa); also called intact CYLD USP domain; source: Sf9 insect cells, purified (as described in Komander et al., 2008)
B5: SPATA2 PUB domain (aa 1–241) (domain or fragment, UniProt Q9UM82 1-241, looked up)
chain: MGKPSSMDTKFKDDLFRKYVQFHESKVDTTTSRQRPGSDECLRVAASTLLSLHKVDPFYRFRLIQFYEVVESSLRSLSSSSLRALHGAFSMLETVGINLFLYPWKKEFRSIKTYTGPFVYYVKSTLLEEDIRAILSCMGYTPELGTAYKLRELVETLQVKMVSFELFLAKVECEQMLEIHSQVKDKGYSELDIVSERKSSAEDVRGCSDALRRRAEGREHLTASMSRVALQKSASERAAKD
notes: Spermatogenesis-associated protein 2 (SPATA2), PUB domain, residues 1-241, 27.6 kDa as printed; Monomer by SEC-MALS; also called SPATA2 PUB domain (1–241); source: E. coli, purified (as described in Elliott et al., 2014)
B6: CYLD USP domain I790D (domain or fragment, human)
chain: B4 chain with I208D
notes: CYLD, human, USP domain with I790D, 44 kDa observed; Monomer by SEC-MALS; Limits of the mutant are not restated; parent is m1; also called CYLD I790D; I790D dimerization mutant; source: Sf9 insect cells, purified (as described in Komander et al., 2008)

The target in series [1] is T1, HOIP PUB domain (aa 1–184). Briefly: SEC-MALS; Superdex 200 column; purified SPATA2 (aa 7–356), HOIP PUB (aa 1–184) and CYLD alone and mixed. The note with it: both partners purified.
Series [2] concerns the target T2, HOIP PUB domain (HOIP 5–180, crystal …). Briefly: crystal structure; HOIP PUB domain with SPATA2 PIM peptide (aa 334–344), 2.7 Å, space group P43, two complexes in the asymmetric unit. To be noted: both partners purified.
Series [3] concerns the molecule itself. Briefly: SEC-MALS; Superdex 75 size-exclusion column; CYLD and SPATA2 PUB variants alone and mixed.
The target in series [4] is B5. The description is as above. The note with it: both partners purified.
The series “SPATA2 (aa 7–356)” concerns the target B1. Briefly: SEC-MALS; Superdex 200 column; purified SPATA2 (aa 7–356), HOIP PUB (aa 1–184) and CYLD alone and mixed. The note with it: both partners purified.
Series [5] addresses B5. Briefly: cell-based or functional assay.
Series [6] deals with B4. The experiment in a line: SPR; fraction of CYLD variant bound to SPATA2 PUB against varying CYLD concentrations; kinetic and equilibrium fits. To be noted: both partners purified.
The series “CYLD USP domain I790D” deals with B6. Described as above. The note with it: both partners purified.

Turning to B1, the “stoichiometry N” value in series [1] is 1 SPATA2 per HOIP PUB (1:1).

Consider B2, for which the binding result in series [2] is on record as “binds”.

As for B3, the “stoichiometry N” value in series [3] amounted to 2.

Consider B4, for which the results for the “stoichiometry N” value (in series [4]; in series [3]; with SPATA2 (aa 7–356)) were 1 CYLD USP per SPATA2 PUB (2:2), 2 and 1 CYLD per SPATA2 (2:2:2 with HOIP PUB), respectively. In series [5], the “kcat/KM of CYLD for fluorescent Met1/Lys63-linked diUb substrates, with against without SPATA2” value was around 2 fold.

For B5, the Kd was determined as 0.096 µM in series [6] and 0.518 µM with CYLD USP domain I790D.

Regarding B6, the “stoichiometry N” value in series [4] was 1 CYLD USP I790D per SPATA2 PUB (1:1).
